Tests used:
[1] = biological target: CXCR4/LgBiT, genome-edited, in HEK293 cells (human (endogenous in HEK293)) (UniProt P61073)
[2] = biological target: CXCR4/LgBiT, transiently transfected in HEK293 cells (UniProt P61073)
[3] = biological target: HiBiT/CXCR4, genome-edited, in HEK293 cells (human (endogenous in HEK293)) (UniProt P61073)
[4] = biological target: HiBiT/CXCR4, exogenously (stably) expressed in HEK293 cells (UniProt P61073)
[5] = biological target: HiBiT/ACKR3, exogenously expressed in HEK293 cells (UniProt P25106)
[6] = biological target: HiBiT/CXCR4, genome-edited, in HEK293 cells (human (endogenous in HEK293)) (UniProt P61073); assay: split reporter (BiFC, NanoBiT); HiBiT-LgBiT complementation, saturation on membrane preparations (10 μg, 0.25 mg/ml saponin) from genome-edited HiBiT/CXCR4 HEK293 cells; increasing purified LgBiT; without AMD3100
[7] = biological target: HiBiT-Halotag, control peptide; assay: split reporter (BiFC, NanoBiT); HiBiT-LgBiT complementation of purified proteins: 1 nM HiBiT-Halotag in HBSS with 0.1% BSA, increasing purified LgBiT; without AMD3100
[8] = biological target: HiBiT/β2-adrenoceptor, genome-edited, in HEK293 cells (human (endogenous in HEK293)) (UniProt P07550); assay: split reporter (BiFC, NanoBiT); HiBiT-LgBiT complementation, saturation on live HEK293 cells with genome-edited HiBiT-tagged receptor; increasing purified LgBiT for 30 min at 37°C in HBSS with 0.1% BSA; without AMD3100; non-specific luminescence on wild-type cells
[9] = biological target: HiBiT/CXCR4, genome-edited, in HEK293 cells (human (endogenous in HEK293)) (UniProt P61073); assay: as above
[10] = biological target: HiBiT-Halotag, control peptide; assay: split reporter (BiFC, NanoBiT); HiBiT-LgBiT complementation of purified proteins: 1 nM HiBiT-Halotag in HBSS with 0.1% BSA, increasing purified LgBiT; in the presence of AMD3100 (10 μM)
[11] = biological target: HiBiT/CXCR4, genome-edited, in HEK293 cells (human (endogenous in HEK293)) (UniProt P61073); assay: split reporter (BiFC, NanoBiT); HiBiT-LgBiT complementation, saturation on live HEK293 cells with genome-edited HiBiT/CXCR4; increasing purified LgBiT; in the presence of AMD3100 (10 μM)
[12] = biological target: HiBiT/CXCR4, genome-edited, in HEK293 cells (human (endogenous in HEK293)) (UniProt P61073); assay: split reporter (BiFC, NanoBiT); HiBiT-LgBiT complementation, saturation on membrane preparations (10 μg, 0.25 mg/ml saponin) from genome-edited HiBiT/CXCR4 HEK293 cells; increasing purified LgBiT; in the presence of AMD3100 (10 μM)
[13] = biological target: NLuc/ACKR3, exogenously (stably) expressed in HEK293 cells (UniProt P25106); assay: FRET or BRET; NanoBRET saturation binding on membrane preparations (10 μg membrane protein per well) with NLuc-tagged receptor; increasing CXCL12-AF647 for 60 min at 37°C in HBSS with 0.1% BSA; non-specific binding with AMD3100 (10 μM) for CXCR4 or CXCL11 (10 μM) for ACKR3
[14] = biological target: NLuc/CXCR4, exogenously (stably) expressed in HEK293 cells (UniProt P61073); assay: as above
[15] = biological target: NLuc/ACKR3, exogenously (stably) expressed in HEK293 cells (UniProt P25106); assay: FRET or BRET; NanoBRET saturation binding on live cells (30,000 cells/well) with NLuc-tagged receptor; increasing CXCL12-AF647 for 60 min at 37°C in HBSS with 0.1% BSA; non-specific binding with AMD3100 (10 μM) for CXCR4 or CXCL11 (10 μM) for ACKR3; furimazine 10 μM
[16] = biological target: NLuc/ACKR3, genome-edited, in HeLa cells (human (endogenous in HeLa)) (UniProt P25106); assay: as above
[17] = biological target: NLuc/CXCR4, genome-edited, in HeLa cells (human (endogenous in HeLa)) (UniProt P61073); assay: as above
[18] = biological target: NLuc/CXCR4, genome-edited, in HEK293 cells (human (endogenous in HEK293)) (UniProt P61073); assay: as above
[19] = biological target: HiBiT/CXCR4, genome-edited, in HEK293 cells (human (endogenous in HEK293)) (UniProt P61073); assay: FRET or BRET; NanoBRET saturation binding on live HEK293 cells with genome-edited HiBiT/CXCR4; CXCL12-AF647 for 60 min at 37°C, then furimazine (10 μM) and purified cell-impermeant LgBiT (10 nM) added, so that only receptors at the plasma membrane are seen; non-specific binding with AMD3100 (10 μM)

CXCL12 (from UniProt P48061 22-93) (ligand)
pEC50 of CXCL12 (0.3-300 nM) for the increase in NanoBiT luminescence (recruitment of genome-edited β-arrestin2/SmBiT, m14, to genome-edited CXCR4/LgBiT), about 5 min after ligand addition [1]: 7.16 -log M
pEC50 of CXCL12 (0.3-300 nM) for the increase in NanoBiT luminescence (recruitment of transiently transfected β-arrestin2/SmBiT, m13, to genome-edited CXCR4/LgBiT), about 5 min after ligand addition [1]: 7.69 -log M
pEC50 of CXCL12 (0.3-300 nM) for the increase in NanoBiT luminescence (recruitment of genome-edited β-arrestin2/SmBiT, m14, to transiently transfected CXCR4/LgBiT), about 5 min after ligand addition [2]: 7.48 -log M
pEC50 of CXCL12 for the decrease in luminescence (cell surface HiBiT/CXCR4 complemented with purified LgBiT, 10 nM) after 1 h at 37°C, live genome-edited HEK293 cells [3]: 8.46 -log M
pEC50 of CXCL12 for the decrease in luminescence (cell surface HiBiT/CXCR4 complemented with purified LgBiT, 10 nM) after 1 h at 37°C, live HEK293 cells stably overexpressing HiBiT/CXCR4 [4]: 8.69 -log M
pEC50 of CXCL12 for the increase in luminescence of live HEK293 cells with exogenous HiBiT/ACKR3 complemented with purified LgBiT [5]: 8.23 -log M

Purified LgBiT (domain or fragment)
Kd [6]: 180 nM
Kd [7]: 6.99 nM
Kd [8]: 54.5 nM
Kd [9]: 230 nM
Kd [10]: 7.73 nM
Kd [11]: 58.5 nM
Kd [12]: 115 nM

CXCL12-AF647 (from UniProt P48061 22-93) (ligand)
pKd [13]: 8.83 -log M
pKd [14]: 7.55 -log M
pKd [15]: 8.12 -log M
pKd [16]: 8.77 -log M
pKd [17]: 7.58 -log M
pKd [18]: 7.5 -log M
pKd [19]: 7.49 -log M

B1: CXCL11 (ligand)
chain: FPMFKRGRCLCIGPGVKAVKVADIEKASIMYPSNNCDKIEVIITLKENKGQRCLNPKSKQARLIIKKVERKNF
pEC50 of CXCL11 for the increase in luminescence of live HEK293 cells with exogenous HiBiT/ACKR3 complemented with purified LgBiT [5]: 7.48 -log M

Source: PMC7242902
